Biological target: T1, TSH receptor (TSHR) on human ML-1 cells (human (endogenous in ML-1), UniProt P16473 21-764)
T1 construct: thyrotropin receptor (TSHR) expressed on the TSHR-positive human thyroid cancer cell line ML-1; also called TSH receptors; source: endogenous, on human ML-1 cells
Experiment: radioligand binding; real-time kinetic binding assay with LigandTracer; 10^6 ML-1 cells seeded in a tilted Petri dish; 2 mL of 30 nM radiolabeled ligand in culture medium for 1 h, then medium without ligand to follow release; Kd from binding/release curve (GraphPad Prism)
Settings: one partner purified

T1 sequence (P16473 21-764): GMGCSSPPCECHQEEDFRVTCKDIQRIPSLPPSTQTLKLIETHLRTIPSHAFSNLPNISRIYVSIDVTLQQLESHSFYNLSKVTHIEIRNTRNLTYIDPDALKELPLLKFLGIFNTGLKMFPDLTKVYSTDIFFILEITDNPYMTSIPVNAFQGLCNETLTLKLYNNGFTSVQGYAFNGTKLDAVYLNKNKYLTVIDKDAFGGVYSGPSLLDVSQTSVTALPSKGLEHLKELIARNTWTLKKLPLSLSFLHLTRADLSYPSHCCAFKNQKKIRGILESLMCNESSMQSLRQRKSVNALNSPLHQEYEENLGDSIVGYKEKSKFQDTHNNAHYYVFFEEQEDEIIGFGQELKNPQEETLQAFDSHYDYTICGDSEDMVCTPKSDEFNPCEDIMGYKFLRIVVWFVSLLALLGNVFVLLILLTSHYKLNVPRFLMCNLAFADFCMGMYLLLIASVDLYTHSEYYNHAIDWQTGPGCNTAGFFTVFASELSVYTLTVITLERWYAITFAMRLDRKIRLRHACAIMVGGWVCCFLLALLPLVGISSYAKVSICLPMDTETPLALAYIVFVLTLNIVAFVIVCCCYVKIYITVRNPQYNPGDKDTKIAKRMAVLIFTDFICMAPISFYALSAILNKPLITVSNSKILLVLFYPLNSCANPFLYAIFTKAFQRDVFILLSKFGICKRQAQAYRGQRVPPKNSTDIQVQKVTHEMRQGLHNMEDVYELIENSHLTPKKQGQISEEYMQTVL

- Kd: 8.4 nM
B1: 99mTc-Thyrogen, radiolabeled recombinant human TSH (Thyrogen) (ligand)
chain 1: not shown
chain 2: FCIPTEYTMHIERRECAYCLTINTTICAGYCMTRDINGKLFLPKYALSQDVCTYRDFIYRTVEIPGCPLHVAPYFSYPVALSCKCGKCNTDYSDCIHEAIKTNYCTKPQKSY
modifications: technetium-99m label (sites and chain not stated) | technetium-99m label (sites and chain not stated)
notes: glycoprotein hormones alpha chain (alpha subunit of TSH), human; recombinant human TSH (Thyrogen), so named in the abstract; thyrotropin (TSH) beta subunit, human; Thyrogen is a drug product; also called rhTSH; radiolabeled human recombinant TSH
